Reference: the supplement of paper PMC9732359
± gives the uncertainty stated by the source.

assay: protein stability index of a GFP-peptide fusion (yeast GPS) (PSI 1-4); higher = more stable; sorted into four equal gates, so the index is relative within each strain; conditions: doa10∆
In short: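 Plasmids in a pooled yeast library fused tiled 17-residue yeast protein peptides downstream of GFP and also expressed Cherry. Mid-log cultures grown without leucine were sorted into four equal gates by GFP/Cherry fluorescence ratio. Each gate's plasmids were PCR-amplified and Illumina-sequenced, and reads were matched to strains by barcodes. The protein stability index is derived by multiplying each gate's read frequency by its gate number and summing the results.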

Sequence	protein stability index
EERFSELFKGYLADDID [RPL5]	3.05 ± 0.29
EFYNEMHRPVHFLQFSE [PRP8]	2.9 ± 0.086
EGDELENKTKKDNDKNL [SRB4]	3.33 ± 0.078
EGEAKQKRNAHGYFLQD [ITC1]	3.18 ± 0.065
EGFAADDEPTTPAELVG [FAS1]	3.3 ± 0.09
EGGEAEFIFGTYNMIDA [ARP7]	2.79 ± 0.059
EGLCIVAGSKCWAVRAD [RRP45]	2.38 ± 0.073
EGMFANANRVFRTRFQD [SMC2]	2.26 ± 0.097
EGQIIQRSNISTAIKSL [CDC53]	1.55 ± 0.056
EGSWDRGIPRISTLFQR [PRP8]	2.79 ± 0.19
EGTRNRFSYSPPKEGNY [YMR129W/POM152]	3.19 ± 0.13
EGVEYSFLHVDDKLAYI [POP8]	1.86 ± 0.097
EHGLQITHTENYNDLIV [BRN1]	3.5 ± 0.27
EHGYQSRGFEVMYNGHT [RPB2]	2.92 ± 0.15
EHIKEGSEIAISSLGYR [SWI3]	2.78 ± 0.055
EIEMKNKLEKLNSLLTY [SMC4]	1.71 ± 0.055
EIEQPVTTFVFTGQGSQ [FAS1]	2.86 ± 0.1
EIFDVTSNGLKKNPNWL [FAS1]	3.54 ± 0.16
EIKDAETSCDNYHPMNI [SMC4]	2.64 ± 0.057
EIKDGRSLFLRNRGKIH [YMR153W/NUP53]	2.01 ± 0.095
EINAVFNELCDPESRTQ [POP1]	2.91 ± 0.079
EISKKDFVRKGGLQKGK [SIR3]	2.38 ± 0.11
EITGTSCLTFFQALDSE [ITC1]	2.46 ± 0.086
EKAIPKDQRATTPYMTK [RPO26]	2.85 ± 0.043

Sequence	protein stability index
EKAKSAGTQSSKFSKQQ [RPL24A]	3.15 ± 0.064
EKASRQQRKQKKNRDKK [RPS24A]	3.44 ± 0.094
EKDCSLRAIEKNDDNSC [YIL149C/MLP2]	2.32 ± 0.1
EKELQNEIKQLGSDSSD [SRB4]	2.95 ± 0.1
EKESVEKQHENAVLELG [SMC3]	3.36 ± 0.2
EKGKKVSGFKDEVLETV [RPS1B]	3.39 ± 0.11
EKIKSKKINRRNETSVD [YCG1]	3.38 ± 0.094
EKKDDNSSKPAFSFGAK [YJL041W/NSP1]	2.3 ± 0.054
EKPAPVRTHMRNMIIVP [RPS15]	1.13 ± 0.064
EKQTPNKKDKKKEEEEQ [RPN1]	3 ± 0.059
EKRATSPLLESDSIEKI [PUP2]	3.12 ± 0.087
EKVFTQGLNILEWLENP [FAS1]	3.18 ± 0.12
EKVNNNATLTPNDSNDE [SWI1]	3.26 ± 0.07
EKVTRYNRHKLQELIVN [RPO31]	1.74 ± 0.046
EKYEDEDEEKILDNTEN [DSN1]	3.52 ± 0.15
ELAINLIRFDESITKAM [SMC2]	2.59 ± 0.062
ELDEHTTQIDLFRIFSM [BRR2]	2.25 ± 0.1
ELGEKKNEKLKFQETLL [ISW2]	2.86 ± 0.096
ELKDLETQVEVEKNEIG [NNF1]	3.05 ± 0.19
ELKINLPLTEHKSPNLS [SRB4]	2.93 ± 0.077
ELKIRSKTENVRRLEAQ [RPT6]	2.5 ± 0.16
ELKPVSLDNKTLDDLVT [YJL041W/NSP1]	3.12 ± 0.057
ELLAYQFASPVRWIETQ [FAS2]	1.77 ± 0.021
ELLEERFQDSNPYVRTK [YCS4]	1.48 ± 0.037

Sequence	protein stability index
ELLRLANEQLKLFNRIV [CSN12]	2.3 ± 0.069
ELLSKYKEQIIQGFYWA [SNU114]	2.99 ± 0.073
ELMKLDGTEYVLSSVRE [MED6]	3.36 ± 0.083
ELPKKLLNLPPFQVSSF [SRB8]	1.77 ± 0.039
ELRFPSPTPIQRITIPN [PRP28]	2.02 ± 0.093
ELSRIENEVENINATNT [YCS4]	3.52 ± 0.16
ELTAQGYDPALLNILSG [RPN2]	2.76 ± 0.091
ELVTISWVQPRIISGDQ [RPN9]	2.44 ± 0.12
EMGYLIQISKLHYTPIE [RPC82]	1.51 ± 0.063
EMKTQAAELQEKPLTPL [SNF6]	2.97 ± 0.19
EMMKMMQDPQMQQMAKQ [SRP54]	3.07 ± 0.057
ENAYDNPLADAEEALEP [PRE4]	3.1 ± 0.086
ENDHERGFFHLNEALLQ [CSN12]	3.08 ± 0.075
ENDLSFALMRYYDRKEE [RRI2]	3.12 ± 0.13
ENEMIKPMNKGQHKNNT [SWP82]	3.36 ± 0.081
ENFLKEVFQLRIFVKEI [GAL11]	1.81 ± 0.073
ENGLQLSDNAKTLHSQM [RPC34]	3.11 ± 0.18
ENGRRINELTLLVQKRF [RPS3]	3.51 ± 0.27
ENIAQMKPKAEKESDDG [SMC4]	3.1 ± 0.26
ENMWPFSYQEVEFKLPK [CDC53]	1.83 ± 0.048
ENNSDSNSNNNGNKDSS [SWI1]	2.95 ± 0.089
ENPTDNFIIWINSIDTT [GRR1]	2.44 ± 0.045
ENSEPPALESSPVTGDN [SNF2]	3.3 ± 0.075
ENTKDNLVKEKEALQNN [SMC1]	3.51 ± 0.12

same assay, conditions: pdr5∆

Sequence	protein stability index
EERFSELFKGYLADDID [RPL5]	3.27 ± 0.24
EFIPHSTEYMMQFAKSK [RPN6]	3.28 ± 0.17
EFMAGFNIISMTLKEMY [SMC4]	2.83 ± 0.24
EFYNEMHRPVHFLQFSE [PRP8]	2.51 ± 0.089
EGDELENKTKKDNDKNL [SRB4]	3.2 ± 0.077
EGEAKQKRNAHGYFLQD [ITC1]	3.4 ± 0.072
EGEYELTEAVEDGPRPF [RPL5]	3.31 ± 0.17
EGFAADDEPTTPAELVG [FAS1]	3.19 ± 0.092
EGGEAEFIFGTYNMIDA [ARP7]	2.66 ± 0.055
EGLCIVAGSKCWAVRAD [RRP45]	2.43 ± 0.071
EGMFANANRVFRTRFQD [SMC2]	1.76 ± 0.089
EGQIIQRSNISTAIKSL [CDC53]	2.33 ± 0.099
EGTRNRFSYSPPKEGNY [YMR129W/POM152]	3.06 ± 0.062
EGVEYSFLHVDDKLAYI [POP8]	2.1 ± 0.088
EHGLQITHTENYNDLIV [BRN1]	2.81 ± 0.18
EHGYQSRGFEVMYNGHT [RPB2]	2.62 ± 0.18
EHIKEGSEIAISSLGYR [SWI3]	3.02 ± 0.063
EIEMKNKLEKLNSLLTY [SMC4]	1.87 ± 0.058
EIEQPVTTFVFTGQGSQ [FAS1]	2.91 ± 0.075
EIFDVTSNGLKKNPNWL [FAS1]	3.46 ± 0.11
EIKDAETSCDNYHPMNI [SMC4]	2.83 ± 0.055
EIKDGRSLFLRNRGKIH [YMR153W/NUP53]	2.2 ± 0.068
EINAVFNELCDPESRTQ [POP1]	3.01 ± 0.069
EIRPEMLGHYLGEFSIT [RPS15]	3.02 ± 0.08
EISKKDFVRKGGLQKGK [SIR3]	1.91 ± 0.083

Sequence	protein stability index
EITGTSCLTFFQALDSE [ITC1]	2.78 ± 0.099
EKAIPKDQRATTPYMTK [RPO26]	2.98 ± 0.047
EKAKSAGTQSSKFSKQQ [RPL24A]	3.23 ± 0.076
EKASRQQRKQKKNRDKK [RPS24A]	3.17 ± 0.075
EKDCSLRAIEKNDDNSC [YIL149C/MLP2]	2.67 ± 0.077
EKELQNEIKQLGSDSSD [SRB4]	2.81 ± 0.1
EKESVEKQHENAVLELG [SMC3]	3.52 ± 0.13
EKGKKVSGFKDEVLETV [RPS1B]	2.82 ± 0.11
EKIKSKKINRRNETSVD [YCG1]	3.09 ± 0.085
EKKDDNSSKPAFSFGAK [YJL041W/NSP1]	1.86 ± 0.039
EKPAPVRTHMRNMIIVP [RPS15]	1.17 ± 0.081
EKQTPNKKDKKKEEEEQ [RPN1]	2.98 ± 0.092
EKRATSPLLESDSIEKI [PUP2]	3.07 ± 0.077
EKVFTQGLNILEWLENP [FAS1]	2.98 ± 0.081
EKVNNNATLTPNDSNDE [SWI1]	3.14 ± 0.057
EKVTRYNRHKLQELIVN [RPO31]	1.44 ± 0.043
EKYEDEDEEKILDNTEN [DSN1]	3.16 ± 0.1
ELAINLIRFDESITKAM [SMC2]	2.78 ± 0.08
ELDEHTTQIDLFRIFSM [BRR2]	1.56 ± 0.1
ELGEKKNEKLKFQETLL [ISW2]	2.7 ± 0.1
ELKDLETQVEVEKNEIG [NNF1]	3.24 ± 0.11
ELKINLPLTEHKSPNLS [SRB4]	3.17 ± 0.051
ELKIRSKTENVRRLEAQ [RPT6]	2.53 ± 0.12
ELKPVSLDNKTLDDLVT [YJL041W/NSP1]	3.04 ± 0.063
ELLAYQFASPVRWIETQ [FAS2]	1.86 ± 0.019

Sequence	protein stability index
ELLEERFQDSNPYVRTK [YCS4]	1.76 ± 0.11
ELLRLANEQLKLFNRIV [CSN12]	2.55 ± 0.082
ELLSKYKEQIIQGFYWA [SNU114]	2.4 ± 0.067
ELMKLDGTEYVLSSVRE [MED6]	3.27 ± 0.08
ELPKKLLNLPPFQVSSF [SRB8]	1.85 ± 0.034
ELRFPSPTPIQRITIPN [PRP28]	2.19 ± 0.071
ELSRIENEVENINATNT [YCS4]	3.11 ± 0.11
ELTAQGYDPALLNILSG [RPN2]	3.06 ± 0.12
ELVTISWVQPRIISGDQ [RPN9]	1.96 ± 0.087
EMGYLIQISKLHYTPIE [RPC82]	2.06 ± 0.081
EMKTQAAELQEKPLTPL [SNF6]	3.14 ± 0.12
EMMKMMQDPQMQQMAKQ [SRP54]	2.76 ± 0.067
ENAYDNPLADAEEALEP [PRE4]	3 ± 0.082
ENDHERGFFHLNEALLQ [CSN12]	2.91 ± 0.062
ENDLSFALMRYYDRKEE [RRI2]	2.88 ± 0.12
ENEMIKPMNKGQHKNNT [SWP82]	3.19 ± 0.12
ENFLKEVFQLRIFVKEI [GAL11]	1.69 ± 0.058
ENGLQLSDNAKTLHSQM [RPC34]	3.27 ± 0.096
ENGRRINELTLLVQKRF [RPS3]	3.42 ± 0.11
ENIAQMKPKAEKESDDG [SMC4]	3.16 ± 0.23
ENMWPFSYQEVEFKLPK [CDC53]	2.19 ± 0.058
ENNSDSNSNNNGNKDSS [SWI1]	3.12 ± 0.076
ENPTDNFIIWINSIDTT [GRR1]	2.51 ± 0.053
ENSEPPALESSPVTGDN [SNF2]	3.24 ± 0.073
ENTKDNLVKEKEALQNN [SMC1]	3.26 ± 0.13

same assay, conditions: san1∆

Sequence	protein stability index
EERFSELFKGYLADDID [RPL5]	3.3 ± 0.17
EFIPHSTEYMMQFAKSK [RPN6]	2.8 ± 0.1
